Where two headings read alike, the source gives them in different places.
What was measured:
Assay in all cases: cell-based or functional assay
[1] = target: T1, cell surface IL-6 receptor (TF-1 cells) (human, UniProt P08887 20-468)
T1 sequence (looked up): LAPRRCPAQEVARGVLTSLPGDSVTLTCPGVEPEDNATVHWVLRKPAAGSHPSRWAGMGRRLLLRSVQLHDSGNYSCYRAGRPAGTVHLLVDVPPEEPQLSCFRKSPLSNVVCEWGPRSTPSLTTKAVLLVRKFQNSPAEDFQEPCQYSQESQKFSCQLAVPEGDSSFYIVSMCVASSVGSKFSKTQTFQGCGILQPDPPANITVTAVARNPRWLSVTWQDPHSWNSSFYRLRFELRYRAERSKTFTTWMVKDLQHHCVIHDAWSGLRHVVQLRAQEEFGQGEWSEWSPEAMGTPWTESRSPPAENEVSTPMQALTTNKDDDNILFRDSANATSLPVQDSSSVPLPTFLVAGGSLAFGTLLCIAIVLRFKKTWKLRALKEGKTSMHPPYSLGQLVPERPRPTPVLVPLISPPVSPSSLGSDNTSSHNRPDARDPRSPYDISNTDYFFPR

[2] = target: T1, cell surface IL-6 receptor (TF-1 cells); remark: listed apart in the source
human IL-6Rα = target: T2, human IL-6Rα (human, UniProt P08887 20-358)
T2 sequence (looked up): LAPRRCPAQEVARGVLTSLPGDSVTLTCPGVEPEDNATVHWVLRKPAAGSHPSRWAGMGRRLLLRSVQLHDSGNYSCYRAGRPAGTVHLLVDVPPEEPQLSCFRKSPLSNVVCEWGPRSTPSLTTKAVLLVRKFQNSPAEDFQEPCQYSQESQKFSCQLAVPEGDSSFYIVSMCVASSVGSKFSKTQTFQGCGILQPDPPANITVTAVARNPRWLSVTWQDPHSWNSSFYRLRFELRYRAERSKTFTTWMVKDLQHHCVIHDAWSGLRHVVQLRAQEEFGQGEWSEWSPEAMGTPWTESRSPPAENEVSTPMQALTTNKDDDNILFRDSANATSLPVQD

IC50, IL-6 dependent growth of TF-1 cells [1]: 0.3 nM | IC50, IL-6 dependent growth of TF-1 cells [2]: 0.41 nM | IC50, IL-6 trans-signaling (MCP-1 secretion by HUVECs) (human IL-6Rα): ~5 nM
B1: tocilizumab (antibody, V domains shown)
VH: QVQLQESGPGLVRPSQTLSLTCTVSGYSITSDHAWSWVRQPPGRGLEWIGYISYSGITTYNPSLKSRVTMLRDTSKNQFSLRLSSVTAADTAVYYCARSLARTTAMDYWGQGSLVTVSS
VL: DIQMTQSPSSLSASVGDRVTITCRASQDISSYLNWYQQKPGKAPKLLIYYTSRLHSGVPSRFSGSGSGTDFTFTISSLQPEDIATYYCQQGNTLPYTFGQGTKVEIKR

From patent publication US20170129926A1 (ABCLON, published 2017)
